These results are taken from PMC11984735, “Dynamics of the adhesion complex of the human pathogens Mycoplasma pneumoniae and Mycoplasma genitalium” (PLOS Pathogens, 2025).

The target of the test is T1, P1 adhesin ectodomain (residues Thr29-Asp1521), Mycoplasma pneumoniae (M. pneumoniae, UniProt P11311).
T1 construct: Adhesin P1 of Mycoplasma pneumoniae, gene MPN_141 (synthetic clone, Genscript), residues 29-1521; also called P1 (29-1521); whole P1 ectodomain; source: E. coli B834 (DE3), purified (HisTrap, Superdex 200)
T1 sequence (P11311 29-1521): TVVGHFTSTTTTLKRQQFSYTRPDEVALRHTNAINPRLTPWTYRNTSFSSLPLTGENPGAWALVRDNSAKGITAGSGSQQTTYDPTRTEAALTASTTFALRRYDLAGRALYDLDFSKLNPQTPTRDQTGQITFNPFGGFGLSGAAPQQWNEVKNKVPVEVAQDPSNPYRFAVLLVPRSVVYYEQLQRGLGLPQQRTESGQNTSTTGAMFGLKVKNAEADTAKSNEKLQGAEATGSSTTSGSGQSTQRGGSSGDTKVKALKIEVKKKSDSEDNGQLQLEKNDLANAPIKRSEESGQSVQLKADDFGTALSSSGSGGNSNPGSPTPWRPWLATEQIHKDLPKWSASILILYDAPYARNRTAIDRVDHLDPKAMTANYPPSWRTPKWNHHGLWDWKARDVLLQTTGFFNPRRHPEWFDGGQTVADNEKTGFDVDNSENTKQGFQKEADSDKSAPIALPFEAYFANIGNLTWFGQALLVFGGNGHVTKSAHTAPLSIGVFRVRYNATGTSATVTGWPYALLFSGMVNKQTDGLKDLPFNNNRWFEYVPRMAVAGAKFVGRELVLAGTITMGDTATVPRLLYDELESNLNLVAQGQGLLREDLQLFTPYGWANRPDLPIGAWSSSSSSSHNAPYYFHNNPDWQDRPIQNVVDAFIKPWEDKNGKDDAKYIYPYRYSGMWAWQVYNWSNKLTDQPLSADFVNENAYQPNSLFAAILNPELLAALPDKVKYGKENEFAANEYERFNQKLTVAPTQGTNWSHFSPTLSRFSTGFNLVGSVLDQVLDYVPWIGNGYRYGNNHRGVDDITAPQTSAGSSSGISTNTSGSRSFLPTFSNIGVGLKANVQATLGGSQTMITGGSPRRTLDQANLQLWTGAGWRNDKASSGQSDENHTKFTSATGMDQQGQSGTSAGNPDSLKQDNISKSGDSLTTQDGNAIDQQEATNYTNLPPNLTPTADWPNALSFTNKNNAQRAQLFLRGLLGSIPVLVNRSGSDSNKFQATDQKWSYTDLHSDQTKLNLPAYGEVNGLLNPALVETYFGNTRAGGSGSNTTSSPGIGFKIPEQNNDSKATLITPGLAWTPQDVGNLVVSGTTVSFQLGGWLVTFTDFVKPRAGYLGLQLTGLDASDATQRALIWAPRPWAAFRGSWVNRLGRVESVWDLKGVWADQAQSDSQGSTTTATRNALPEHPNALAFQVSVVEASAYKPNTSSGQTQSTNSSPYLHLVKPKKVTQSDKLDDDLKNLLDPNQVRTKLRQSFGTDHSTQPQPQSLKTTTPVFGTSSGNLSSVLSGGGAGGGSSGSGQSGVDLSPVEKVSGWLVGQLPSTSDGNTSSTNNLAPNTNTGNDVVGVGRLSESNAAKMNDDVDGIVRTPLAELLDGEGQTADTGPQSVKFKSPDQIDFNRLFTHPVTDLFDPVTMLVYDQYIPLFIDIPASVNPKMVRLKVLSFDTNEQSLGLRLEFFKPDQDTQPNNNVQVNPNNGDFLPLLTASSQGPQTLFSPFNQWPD
Briefly: SEC-MALS; proteins mixed in solution (Fab and P1 ectodomain in equimolecular amounts; Mab with C-domain constructs); Superdex 200 10/300 GL with MALS and refractive index detectors. As to conditions: both partners purified.

B1: Fab fragment of monoclonal antibody P1/MCA4, with light chain L1 (Fab, V domains shown)
VH: EVQLQQSGPELVKPGTSMKISCKASGYSFTGYTMNWVKQSHGKSLEWIGLINPYNGGTNYNQKFRGTATLTVDKSSSTAYMELLSLTSEDSAVYYCARSNYAYDLLMDYWGQGTSVTVSS
VL: DVLMTQTPLSLPVSLGDQASISCRFSQTIVHSNGATYLEWYLQRPGQSPKLLIYKVSNRFSGVPDRFSGSGSGTDFTLKISRVEAEDLGVYYCFQGSHVPWTFGGGTKLEIK
notes: LC600310 by the order of listing; here the papain fragment of the heavy chain; modelled in PDB 8ROR; light chain L1, the one seen in the cryo-EM map; The Fab preparation is a mixture of two Fabs with one heavy chain and two different light chains (roughly 70% for the most abundant); this molecule is the one with L1; also called Fab(P1/MCA4); P1/MCA4 Fab; source: papain digestion of monoclonal …
As to B1, the binding result was “binds”.

B2: Fab fragment of monoclonal antibody P1/MCA4, with the second light chain (not L1) (Fab, V domains shown)
VH: B1 VH
VL: DVVMTQTPLTLSVTIGQPASISCKSSQSLLDSDGKTYLNCFLQRPGQSPNRLIYLVSRLDSGVPDRFTGSGSGTDFTLKISRVEAEDLGVYYCCQVTQWTFGGGTKLEIK
notes: LC600310 by the order of listing; papain fragment; the second of the two light chains found in P1/MCA4 (not L1); Present in the same Fab preparation as m1; also called Fab(P1/MCA4); P1/MCA4 Fab; source: papain digestion of monoclonal antibody P1/MCA4 (hybridoma), purified (HiTrap Protein G, Superdex 75)
Turning to B2, the binding result is listed as “binds”.
